Two molecules from patent US8026342B2, “Compositions and methods for binding sphingosine-1-phosphate” (Lpath, Inc., priority 2006, dated 2011) can be followed below.

One assay concerns COLO205 tumor. Briefly: SC COLO205 colorectal tumor xenograft. It is filed as in vivo, nude NCr (nu/nu) mice. The method, then: Nude mice were implanted sc near the right flank with one fragment per mouse of COLO 205 tumor from an in vivo passage. All treatments were initiated the day when 60 mice in each experiment established tumors ranging in size from approximately 100 to 200 mm3. […] Avastin was administered iv at a dosage of 40 mg/kg/dose on a q7d schedule, injected in a volume of 0.1 mL/20 g body weight. Paclitaxel (positive control), was administered iv at a dosage of 15 mg/kg/dose on a q1d×5 schedule, injected in a volume of 0.1 mL/10 g body weight.
Animals were observed daily for mortality. Tumor dimensions and body weights were collected twice weekly starting with the first day of treatment and including the day of study termination. When the median tumor in the vehicle-treated control group in each study reached approximately 4,000 mg, the study was terminated. Tumors from each animal were harvested, wet weights were recorded, tumors were processed for determination of microvascular densities (MVD) by CD-31 staining. Tumor weights (mg) were calculated using the equation for an ellipsoid sphere (l×w^2)/2=mm^3, where l and w refer to the larger and smaller dimensions collected at each measurement and assuming unit density (1 mm^3=1 mg).

The test system of assay [1] is experimental autoimmune encephalomyelitis. The assay can be described thus: MOG35-55 induced EAE model of multiple sclerosis. The assay is classed as in vivo, C57BL/6J mice. The method, then:
Experimental protocol—the following experiments were conducted in the laboratory of Dr. Howard Weiner in collaboration with Lpath, Inc. A peptide fragment of myelin oligodendrocyte glycoprotein (MOG35-55; […] (SEQ ID NO: 52)) is used to cause experimental EAE in mice. Mendel, I. et al., A myelin oligodendrocyte glycoprotein peptide induces typical chronic experimental autoimmune encephalomyelitis in H-2b mice: fine specificity and T cell receptor V beta expression of encephalitogenic T cells, Eur J Immunol. 1995 July; 25(7):1951-9. EAE was induced in mice by immunization with a peptide corresponding to amino acids 35-55 of myelin oligodendrocyte glycoprotein (MOG) peptide (MOG35-55) to induce chronic experimental autoimmune encephalomyelitis (EAE). Following immunization with MOG35-55, mice develop an acute episode of EAE that is followed by a gradually developing progressive disease thought to model several features of progressive multiple sclerosis. Mice were treated with antibody to S1P and treated mice were followed to study the effects of S1P-specific antibody on the clinical manifestations of this acute model of EAE. At the end of the experiment, treated mice were also used to analyze the effect of anti-S1P administration on the immune response.
In a first set of experiments, using 10 mice per group with an average weight of 20 gr, EAE was induced in C57BL/6J mice with 150 ug/mouse MOG35-55 in CFA along with […] pertussis toxin on days 0 and 2. Anti-S1P antibody LT1002 (Sphingomab™) was administered i.v. at a dosage of 75 mg/Kg on day-1, followed by i.p. dosing at 25 mg/Kg every 2 days. Treated mice were followed for 25 days to study the effects of S1P-specific antibodies on the clinical manifestations of this acute model of EAE. Clinical manifestations of the disease include flaccid tail, and limb paralysis which may be scored to give an objective evaluation of clinical symptoms. The standard evaluation of disease severity in the EAE model measures clinical behavior on a 0-6 scale: 0) normal; 1) flaccid tail; 2) abnormal gait, hind leg weakness; 3) partial paralysis, severe ataxia; 4) minimal hind leg movement after painful stimulus; 5) no hind leg movement; 6) moribund state with little or no movement. Means were compared between groups to determine the effect of treatment on clinical scores and body weight gain. Statistical significance of clinical scores and weight were resolved using biostatistical analysis.
At day 17, two representative mice were sacrificed to study the cellular immune response (proliferation and cytokines) and to analyze CNS pathology. Spinal cords were dissected and sectioned. Sections were stained with hematoxylin and eosin (H&E) to reveal inflammatory cells, with Luxol to visualize myelin, or with silver stain to visualize axons. Total levels of CD4+FoxP3+Treg cells were evaluated by FACS analysis of blood samples taken from the tail on day 17. At day 25, treated mice were analyzed to see the effect of anti-S1P administration on the immune response.
Injection of synthetic MOG peptide (amino acids 35-55 of myelin oligodendrocyte glycoprotein, referred to as MOG35-55) causes mice to develop significant specific T cell responses in addition to neurological symptoms. Spahn et al., (1999) Eur. J. Immunol 29:4060-4071. Anti-S1P administration was associated with a significant decrease in this proliferative recall response to MOG35-55. Mice were primed by injections of MOG peptide. The spleens were removed and homogenized, and splenocytes were pulsed with different amounts of MOG peptide. Subsequently, cells were pulsed with radiolabel and incubated before cells were harvested and label incorporation was assessed by scintillation counting. […] As measured in cpm, the recall proliferative response was decreased by approximately 36%, 38% and 22% after anti-S1P antibody treatment (at 4 ug/ml, 20 ug/ml and 100 ug/ml of MOG35-55, respectively).

Setting [2] is: LT1009 25 mg/kg ip q3d, increased to 75 mg/kg on Day 21.
Setting [3] is: LT1009 50 mg/kg ip q3d, Avastin 40 mg/kg iv q7d, Paclitaxel 15 mg/kg iv q1d×5.
Setting [4] is: 75 mg/Kg i.v. day -1, then 25 mg/Kg i.p. every 2 days.

As for “LT1009: humanized anti-S1P IgG1/kappa mAb with Cys to Ala in HCDR2, light chain with 5 backmutations; SEQ ID NO: 31/32”, in the assay with COLO205 tumor (setting [2]), the “% Reduction compared to Vehicle-Treated Mice” value is listed as 20% and the “Final Tumor Weights” value stood at 2465.60 mg. Moreover, in the assay with COLO205 tumor (setting [3]), the “% Reduction compared to Vehicle-Treated Mice” value is listed as 32% and the “Final Tumor Weights” value came out at 2071.17 mg.

B1: LT1002: murine anti-S1P monoclonal antibody, IgG1 kappa, from hybridoma clone 306D326.26 (antibody, listed as Mus sp., V domains shown)
VH: QAHLQQSDAELVKPGASVKISCKVSGFIFIDHTIHWMKQRPEQGLEWIGCISPRHDITKYNEMFRGKATLTADKSSTTAYIQVNSLTFEDSAVYFCARGGFYGSTIWFDFWGQGTTLTVS
VL: ETTVTQSPASLSMAIGEKVTIRCITTTDIDDDMNWFQQKPGEPPNLLISEGNILRPGVPSRFSSSGYGTDFLFTIENMLSEDVADYYCLQSDNLPFTFGSGTKLEIK
B1: the “decrease in recall proliferative response to MOG35-55 (cpm)” value (from here on “decrease … (cpm)”) in assay [1] (4 ug/ml MOG35-55) is reported as “approximately 36%”. Also, in assay [1] (20 ug/ml MOG35-55), the “decrease … (cpm)” value was roughly 38%. Moreover, the “decrease … (cpm)” value in assay [1] (100 ug/ml MOG35-55) is roughly 22%. Also, in assay [1] (setting [4]), the EAE development result is “significant inhibition” and the “EAE severity score (0-6 scale) at plateau” value is reported as “approximately 2”. Besides, in assay [1] (antibody-treated animals), the circulating lymphocytes result is listed as “approximately 10%”; the “demyelination in spinal cord” value is “less than 1%”; the “spleen CD4+ T cells, of lymphocytes in spleen” value is listed as “approximately 7.6%”. Besides, the axonal loss result in assay [1] (antibody-treated mice) is given as “less than 2%”. In assay [1] (mouse, in vivo), the “CD4+CD25+Foxp3+ Treg in spleen” value is “significant increase”, the “IFNγ secretion by splenocytes upon MOG35-55 stimulation” value is recorded as “lower levels”, the “IL-10 secretion by splenocytes upon MOG35-55 stimulation” value was “higher levels” and the “IL-17 secretion by splenocytes upon MOG35-55 stimulation” value is on record as “lower levels”. Further, the “circulating CD4+CD25+Foxp3+ Treg cells” value in assay [1] (mouse, in vivo) was “statistically nonsignificant increase”. The “decrease in spleen CD4+ T cells after antibody treatment” value in assay [1] (vs control animals) is on record as roughly 35%. The “decrease in circulating lymphocytes after antibody treatment” value in assay [1] (vs control animals with EAE) is recorded as roughly 26%. Further, in assay [1] (vs untreated controls with EAE), the “decrease in axonal loss after treatment” value is recorded as roughly 91%, the “decrease in demyelination after treatment” value is on record as roughly 92% and the “decrease in number of inflammatory cells/mm^2 in spinal cords” value is recorded as “about 85%”.
